Source: publication PMC2629542

biological target: Dr hemagglutinin (DraE) adhesin, Dr fimbriae (E. coli); experiment: SPR

Substance N-domain of CEA (domain or fragment) has a Kd of 13.1 µM.

biological target: Dr hemagglutinin (DraE) adhesin, Dr fimbriae (E. coli); experiment: SPR; remark: another data set of the same source

Point of comparison: N-CEA V11A (domain or fragment), Kd 24.9 µM. Against it:
- CEA-CEACAM8 chimera (from UniProt P06731 35-92) (domain or fragment) — 1.7-fold lower, 14.4 µM
- N-CEA D40A (domain or fragment) — 2-fold higher, 48.9 µM
- N-CEA F9A (domain or fragment) — within 1.5-fold, 18.4 µM
- N-CEA F29R (domain or fragment) — higher, > 200 µM
- N-CEA G51D (domain or fragment) — 2.1-fold lower, 12 µM
- N-CEA L28P (domain or fragment) — 3.8-fold lower, 6.6 µM
- N-CEA Q44R (domain or fragment) — higher, > 200 µM
- N-CEA S32N (domain or fragment) — 1.9-fold lower, 12.8 µM
- N-CEA T52N (domain or fragment) — 2.3-fold lower, 11 µM
- N-CEA V39A (domain or fragment) — 2.7-fold lower, 9.35 µM
- N-domain of CEA (domain or fragment) — 1.9-fold lower, 13.1 µM
- N-domain of CEACAM1 (domain or fragment) — 1.6-fold lower, 15.3 µM
